In paper PMC7617670, “Activity Regulation of a Glutamine Amidotransferase Bienzyme Complex by Substrate-Induced Subunit Interface Expansion” (ACS catalysis, 2025) one finds Kd data, which are given here for one molecule.

The term Kd denotes the concentration at which binding is half-saturated.

For test [1], the target named is T1, PabB, synthase subunit of aminodeoxychorismate synthase (ADCS) from Escherichia coli, wild type (Escherichia coli, UniProt P05041 1-453).
T1 construct: PabB, synthase subunit of ADCS, E. coli; the gene was cloned into pET28a; Form used for SEC, ITC and kinetics; TEV cleavage is told only of the proteins used for crystallization; also called wt PabB; ADCS synthase subunit; source: E. coli BL21-Gold (DE3), purified (Ni-IMAC, preparative gel filtration)
T1 sequence: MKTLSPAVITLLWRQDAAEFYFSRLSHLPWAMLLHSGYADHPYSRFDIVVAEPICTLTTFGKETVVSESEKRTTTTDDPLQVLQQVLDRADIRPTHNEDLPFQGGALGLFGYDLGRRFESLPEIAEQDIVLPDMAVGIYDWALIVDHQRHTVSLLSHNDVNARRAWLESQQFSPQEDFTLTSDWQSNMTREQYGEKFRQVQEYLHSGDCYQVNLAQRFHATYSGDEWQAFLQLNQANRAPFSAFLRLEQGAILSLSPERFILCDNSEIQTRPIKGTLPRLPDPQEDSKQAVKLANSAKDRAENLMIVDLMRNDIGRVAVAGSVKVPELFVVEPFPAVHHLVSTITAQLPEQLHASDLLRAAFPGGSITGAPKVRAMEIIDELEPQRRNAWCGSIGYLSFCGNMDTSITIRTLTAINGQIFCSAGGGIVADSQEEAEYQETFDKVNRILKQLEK
Description: ITC; 250 μM PabB titrated into 25 μM PabA in the cell; 25 °C; 50 mM Tris/HCl pH 7.5, 50 mM KCl, 5 mM MgCl2; without Cho and Gln; one set of sites. Conditions: both partners purified. For orientation: Isothermal titration calorimetry measures the heat released or taken up as one component is titrated into another.

The next test deals with T2, PabB variant bE119R (Escherichia coli, UniProt P05041 1-453, bE119R).
T2 construct: PabB, synthase subunit of ADCS, E. coli; construct as m2 with one exchange; Made by QuikChange mutagenesis from the construct of m2; source: E. coli BL21-Gold (DE3), purified (Ni-IMAC, preparative gel filtration)
T2 sequence: T1 sequence with E119R
The test is described as above. As to conditions: both partners purified.

Substitutions are numbered along the chain they refer to. Names may count otherwise.

B1: PabA, glutaminase subunit of aminodeoxychorismate synthase (ADCS) from Escherichia coli, wild type (enzyme)
chain: MILLIDNYDSFTWNLYQYFCELGADVLVKRNDALTLADIDALKPQKIVISPGPCTPDEAGISLDVIRHYAGRLPILGVCLGHQAMAQAFGGKVVRAAKVMHGKTSPITHNGEGVFRGLANPLTVTRYHSLVVEPDSLPACFDVTAWSETREIMGIRHRQWDLEGVQFHPESILSEQGHQLLANFLHR
notes: PabA, class I glutaminase subunit of ADCS, E. coli; the gene was cloned into pET28a; Form used for SEC, ITC and kinetics; TEV cleavage is told only of the proteins used for crystallization; The G5H-Tag stands between the TEV site and the start methionine of PabA; also called wt PabA; ADCS glutaminase subunit; source: E. coli BL21-Gold (DE3), purified (Ni-IMAC, preparative gel filtration)
Regarding B1, the results for the Kd (in test [1]; in the test with PabB variant bE119R) were 160 nM and 540 nM, respectively.
